Experiments:
Assay in all cases: ELISA
[1] = target: BSA-conjugated Aβ heptapeptide AEFRHDC
[2] = target: BSA-conjugated Aβ heptapeptide VFFAEDC
[3] = target: BSA-conjugated Aβ heptapeptide FFAEDVC
[4] = target: BSA-conjugated Aβ heptapeptide LVFFAEC

Row | OD ratio 2-7/BSA [1] | OD ratio 18-23/BSA [2] | Peptide-ratio 18-23/2-7 [2] | OD ratio 19-24/BSA [3] | Peptide-ratio 19-24/2-7 [3] | OD ratio 17-22/BSA [4] | Peptide-ratio 17-22/2-7 [4] | Substance
1 | 1 | 20 | 20 | 1 | 1 | 23 | 23 | 4G8 (antibody)
2 | 18 | 1 | 0.06 | 1 | 0.06 | 1 | 0.06 | 6E10 (antibody)
3 | 16 | 1 | 0.06 | 3 | 0.19 | 2 | 0.13 | AMY-33 (antibody)

Source: patent publication US20100172907A1
